Numbering of substitutions follows the chain as printed.
How the values were obtained:
[1] = target: CD20 (human B lymphocyte-restricted differentiation antigen Bp35) on Raji cells (human) (UniProt P11836); experiment: staining of NHL cell lines (Raji, Ramos, RL, Daudi, Su-DHL-6)
[2] = target: CD20 (human B lymphocyte-restricted differentiation antigen Bp35) on Raji cells (human) (UniProt P11836); experiment: direct binding of radiolabeled MAb to Raji cells, Scatchard plot analysis
[3] = target: CD20 (human B lymphocyte-restricted differentiation antigen Bp35) on Raji cells (human) (UniProt P11836); experiment: cell surface competitive binding on Raji cells; unlabeled murine A20 against tracer 125I-labeled murine A20
[4] = target: CD20 (human B lymphocyte-restricted differentiation antigen Bp35) on Raji cells (human) (UniProt P11836); experiment: cell surface competitive binding on Raji cells, 4 C, 1-2 h; unlabeled murine A20 against tracer 125I-labeled murine A20
[5] = target: CD20 (human B lymphocyte-restricted differentiation antigen Bp35) on Raji cells (human) (UniProt P11836); experiment: cell surface competitive binding on Raji cells, 4 C, 1-2 h; competitor tracer 125I-labeled rituximab; column head IC50 nM
[6] = target: CD20 (human B lymphocyte-restricted differentiation antigen Bp35) on Raji cells (human) (UniProt P11836); experiment: cell surface competitive binding on Raji cells, 4 C, 1-2 h; unlabeled rituximab against tracer 125I-labeled c2B8/rituximab
[7] = target: CD20 (human B lymphocyte-restricted differentiation antigen Bp35) on Raji cells (human) (UniProt P11836); experiment: cell surface competitive binding on Raji cells, 4 C, 1-2 h; unlabeled rituximab against tracer 125I-labeled rituximab; column head IC50 nM
[8] = target: T1, CD20 (human B lymphocyte-restricted differentiation antigen Bp35) on Raji cells (human, UniProt P11836 1-297); experiment: direct binding of radiolabeled MAb to Raji cells, Scatchard plot analysis
T1 construct: whole, on cells; The assays name the cells (Raji, Ramos, RL, Daudi, Su-DHL-6); also called CD20 antigen; hCD20
T1 sequence (looked up): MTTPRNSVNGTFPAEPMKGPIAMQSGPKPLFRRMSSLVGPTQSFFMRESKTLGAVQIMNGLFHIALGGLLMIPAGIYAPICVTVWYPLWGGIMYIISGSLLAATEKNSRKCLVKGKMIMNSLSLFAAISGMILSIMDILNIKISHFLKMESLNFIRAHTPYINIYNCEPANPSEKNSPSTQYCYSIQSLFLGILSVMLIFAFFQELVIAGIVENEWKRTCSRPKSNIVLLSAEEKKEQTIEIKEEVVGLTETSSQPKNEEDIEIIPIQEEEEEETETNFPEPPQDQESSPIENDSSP

[9] = target: T1, CD20 (human B lymphocyte-restricted …); experiment: cell surface competitive binding on Raji cells; competitor tracer 125I-labeled murine A20
Protocol: (§1) Unbound Abs were removed by washing the cells in PBS. The radioactivity associated with cells was determined after washing.

[10] = target: T1, CD20 (human B lymphocyte-restricted …); experiment: cell surface competitive binding on Raji cells, 4 C, 1-2 h; competitor tracer 125I-labeled rituximab
Protocol: (§2) Unbound Abs were removed by washing the cells with PBS. Radioactivity associated with the cells was determined after washing.

[11] = target: T1, CD20 (human B lymphocyte-restricted …); experiment: cell surface competitive binding on Raji cells, 4 C, 1-2 h; competitor tracer 125I-labeled murine 2B8
Protocol: as §2

[12] = target: T1, CD20 (human B lymphocyte-restricted …); experiment: cell surface competitive binding on Raji cells, 4 C, 1-2 h; competitor tracer 125I-labeled c2B8/rituximab
[13] = target: T1, CD20 (human B lymphocyte-restricted …); experiment: cell surface competitive binding on Raji cells, 4 C, 1-2 h; competitor tracer 125I-labeled murine A20
Protocol: as §1

[14] = target: T1, CD20 (human B lymphocyte-restricted …); experiment: cell surface competitive binding on Raji cells, 4 C, 1-2 h; competitor tracer 125I-labeled rituximab; column head IC50 nM
Protocol: as §2

[15] = target: T2, soluble CEA (Scripps Laboratories) (UniProt P06731 35-685, limits assumed); experiment: competitive ELISA on CEA-coated wells (0.5 ug/well); competitor HRP-conjugated hMN14 IgG, 1 nM
T2 construct: Coated at 0.5 ug/well in the ELISA; also injected as soluble analyte in BIAcore
T2 sequence (looked up): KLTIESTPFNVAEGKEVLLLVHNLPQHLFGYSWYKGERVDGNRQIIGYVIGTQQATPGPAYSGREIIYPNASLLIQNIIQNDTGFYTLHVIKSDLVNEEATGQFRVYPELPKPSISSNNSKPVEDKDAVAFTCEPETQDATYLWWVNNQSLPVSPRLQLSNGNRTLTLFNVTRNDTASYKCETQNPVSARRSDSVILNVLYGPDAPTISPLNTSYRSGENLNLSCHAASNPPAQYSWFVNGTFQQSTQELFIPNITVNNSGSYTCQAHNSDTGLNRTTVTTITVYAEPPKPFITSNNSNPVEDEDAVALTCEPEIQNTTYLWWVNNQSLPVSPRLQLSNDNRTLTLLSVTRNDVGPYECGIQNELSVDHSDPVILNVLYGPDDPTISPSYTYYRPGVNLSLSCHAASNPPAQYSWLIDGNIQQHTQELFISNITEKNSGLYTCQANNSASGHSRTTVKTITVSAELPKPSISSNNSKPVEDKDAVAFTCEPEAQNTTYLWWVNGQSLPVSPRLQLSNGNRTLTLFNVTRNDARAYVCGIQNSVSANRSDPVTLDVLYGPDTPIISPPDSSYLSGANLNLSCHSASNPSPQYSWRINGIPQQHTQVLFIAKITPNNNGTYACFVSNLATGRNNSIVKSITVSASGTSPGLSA
Protocol: FIG. 15 is a graphical representation of the results of a competitive enzyme-linked immunosorbent assay (ELISA). […] The % inhibition is plotted vs. nM concentration of sample.
Microtiter plates were coated with 0.5 μg/well with soluble CEA (Scripps Laboratories).

[16] = target: T2, soluble CEA (Scripps Laboratories); experiment: ELISA on CEA
[17] = target: T2, soluble CEA (Scripps Laboratories); experiment: competitive ELISA; antigen not given, CEA per paragraph 119

hA20, humanized anti-CD20 antibody (variant hA20-1 or hA20-2 not specified)
percent of cells stained [1]: > 99%
Kd [2]: 4.2 nM

A20, murine anti-CD20 MAb (antibody)
IC50 (read off the curve) [3]: 20 nM
IC50 (read off the curve) [4]: 4 nM

murine B1 anti-CD20 antibody
IC50 [5]: 34 nM

rituximab (IDEC Pharmaceuticals Corp.) (antibody)
percent of cells stained [1]: > 99%
IC50 (read off the curve) [6]: 7 nM
IC50 [7]: 5 nM

B1: cA20, chimeric anti-CD20 antibody (antibody, V domains shown)
VH: QVQLQQPGAELVKPGASVKMSCKASGYTFTSYNMHWVKQTPGRGLEWIGAIYPGNGDTSYNQKFKGKATLTADKSSSTAYMQLSSLTSEDSAVYYCARSTYYGGDWYFDVWGQGTTVTVSS
VL: DIQLTQSPAILSASPGEKVTMTCRASSSVSYIHWFQQKPGSSPKPWIYATSNLASGVPVRFSGSGSGTSYSLTISRVEAEDAATYYCQQWTSNPPTFGGGTKLEIK
notes: Murine A20 variable domains with human constant regions; expressed in Sp2/0 cells; also called chimeric A20
Kd [8]: 2.9 nM
IC50 (read off the curve) [9]: ~10 nM
IC50 (read off the curve) [10]: ~9 nM
IC50 (read off the curve) [11]: ~9 nM
IC50 (read off the curve) [12]: ~6 nM

B2: hA20-1, humanized anti-CD20 antibody (hA20VH1 + hA20Vk) (antibody, human IgG1, V domains shown)
VH: QVQLQQSGAEVKKPGSSVKVSCKASGYTFTSYNMHWVKQAPGQGLEWIGAIYPGNGDTSYNQKFKGKATLTADESTNTAYMELSSLRSEDTAFYYCARSTYYGGDWYFDVWGQGTTVTVSS
VL: DIQLTQSPSSLSASVGDRVTMTCRASSSVSYIHWFQQKPGKAPKPWIYATSNLASGVPVRFSGSGSGTDYTFTISSLQPEDIATYYCQQWTSNPPTFGGGTKLEIKR
IC50 (read off the curve) [13]: ~4 nM
IC50 (read off the curve) [11]: ~10 nM
IC50 (read off the curve) [12]: ~9 nM
IC50 [14]: 6.8 nM

B3: hA20-2, humanized anti-CD20 antibody (hA20VH2 + hA20Vk) (antibody, human IgG1, V domains shown)
VH: B2 VH with T30S, K38R, I48M, K67R, L70I, Y95F
VL: B2 VL
IC50 (read off the curve) [13]: ~4 nM
IC50 (read off the curve) [11]: ~10 nM

B4: BS1.5 (679 x hMN14 bispecific diabody: variant 2) (bispecific antibody)
chain 1: MEVQLVESGGDLVKPGGSLKLSCAASGFTFSIYTMSWLRQTPEKRLEWVATLSGDGDDIYYPDSVKGRFTISRDNAKNNLYLQMNSLRSADTALYYCARVRLGDWDFDVWGQGTTVSVSSGGGGSDIQLTQSPSSLSASVGDRVTITCKASQDVGTSVAWYQQKPGKAPKLLIYWTSTRHTGVPSRFSGSGSGTDFTFTISSLQPEDIATYYCQQYSLYRSFGQGTKVEIKRLEHHHHHH
chain 2: MEVQLVESGGGVVQPGRSLRLSCSASGFDFTTYWMSWVRQAPGKGLEWIGEIHPDSSTINYAPSLKDRFTISRDNAKNTLFLQMDSLRPEDTGVYFCASLYFGFPWFAYWGQGTPVTVSGGGGSDIVMSQSPSSLAVSPGEKVTMTCKSSQSLFNSRTRKNYLGWYQQKPGQSPKLLIYWASTRESGVPDRFTGSGSGTDFTLTINSVQSEDLAVYYCTQVYYLCTFGAGTKLELKRLEHHHHHH
notes: Heterodimer of the two polypeptides; pelB leaders removed; copies: 1 + 1
binding result [15]: binds

B5: BS1 (679 x hMN14 bispecific diabody: variant 1) (bispecific antibody)
chain 1: B4 chain 1 with Q4I
chain 2: B4 chain 2
notes: as for B4
binding result [16]: binds

B6: BS2 (679 x hMN14 bispecific diabody: variant 3) (bispecific antibody)
chain 1: B4 chain 1
chain 2: B4 chain 2 with C225S
notes: as for B4
binding result [16]: binds

B7: hMN14 diabody (hMN14-scFv-L5) (scFv)
scFv: MEVQLVESGGGVVQPGRSLRLSCSASGFDFTTYWMSWVRQAPGKGLEWIGEIHPDSSTINYAPSLKDRFTISRDNAKNTLFLQMDSLRPEDTGVYFCASLYFGFPWFAYWGQGTPVTVSGGGGSDIQLTQSPSSLSASVGDRVTITCKASQDVGTSVAWYQQKPGKAPKLLIYWTSTRHTGVPSRFSGSGSGTDFTFTISSLQPEDIATYYCQQYSLYRSFGQGTKVEIKRLEHHHHHH
modifications: Non-covalent homodimer (diabody) of two copies of this chain.
notes: Non-covalent homodimer of the scFv; the pelB leader is removed in the mature polypeptide; One codon before the VH and two between the VK and the tag are not spelled out in the text
binding result [17]: binds
